The text below walks through data of patent US20240018502A1.

Residue numbers refer to the chain shown, from its start. In names and notes the source's numbering stands.

First the molecules themselves.
B1: MTSP-1 I41R/ins97aE/F97T/T98G/F99L/C122S/G151E/Q175L/Q192E (enzyme)
chain: VVGGTDADEGEWPWQVSLHALGQGHRCGASLISPNWLVSAAHCYIDDRGFRYSDPTQWTAFLGLHDQSQRSAPGVQERRLKRIISHPFFNDTEGLDYDIALLELEKPAEYSSMVRPISLPDASHVFPAGKAIWVTGWGHTQYGGTEALILQKGEIRVINQTTCENLLPQLITPRMMCVGFLSGGVDSCEGDSGGPLSSVEADGRIFQAGVVSWGDGCAQRNKPGVYTRLPLFRDWIKENTGV
B2: MTSP-1 I41R/ins97aE/F97T/T98G/F99L/C122S/G151N/Q175T/Q192E (enzyme)
chain: B1 chain with E146N, L170T
B3: MTSP-1 I41R/ins97aE/F97T/T98G/F99L/C122S/G151D/Q175T/Q192D (enzyme)
chain: B1 chain with E146D, L170T, E189D
B4: MTSP-1 I41R/ins97aE/F97T/T98G/F99L/C122S/G151D/Q175T/Q192E (enzyme)
chain: B1 chain with E146D, L170T
B5: MTSP-1 I41R/ins97aE/F97T/T98G/F99L/C122S/G151N/Q175L/Q192D (enzyme)
chain: B1 chain with E146N, E189D
B6: MTSP-1 H40P/I41R/ins97aE/F97T/T98G/F99L/C122S/Q175L/Q192E (enzyme)
chain: B1 chain with H25P, E146G
B7: MTSP-1 I41R/ins97aE/F97T/T98G/F99L/C122S/G151N/Q175L/Q192E (enzyme)
chain: B1 chain with E146N
B8: MTSP-1 I41R/ins97aE/F97T/T98G/F99L/C122S/Q175L/Q192E (enzyme)
chain: B1 chain with E146G
B9: MTSP-1 I41R/ins97aE/F97T/T98G/F99L/C122S/G151E/Q175T/Q192D (enzyme)
chain: B1 chain with L170T, E189D
B10: MTSP-1 H40P/I41R/ins97aE/F97T/T98G/F99L/C122S/G151D/Q175L/Q192E (enzyme)
chain: B1 chain with H25P, E146D
B11: MTSP-1 I41R/F97T/ins97aE/T98G/F99L/C122S/G151E/Q175T/Q192E (enzyme)
chain: B1 chain with L170T
B12: MTSP-1 I41R/ins97aE/F97T/T98G/F99L/C122S/G151D/Q175L/Q192E (enzyme)
chain: B1 chain with E146D
B13: MTSP-1 K86R/F97T/ins97aE/T98G/F99L/K110R/C122S/K134R/K157R/Q175L/Q192E/K224R/K239R (enzyme)
chain: B1 chain with R26I, K81R, K106R, K130R, E146G, K152R, K222R, K237R
B14: MTSP-1 I41R/ins97aE/F97T/T98G/F99L/C122S/G151N/Q175T/Q192D (enzyme)
chain: B1 chain with E146N, L170T, E189D
B15: MTSP-1 H40R/I41H/K86R/F97D/K110R/C122S/K134R/G151N/K157R/K224R/K239R (enzyme)
chain: VVGGTDADEGEWPWQVSLHALGQGRHCGASLISPNWLVSAAHCYIDDRGFRYSDPTQWTAFLGLHDQSQRSAPGVQERRLRRIISHPFFNDDTFDYDIALLELERPAEYSSMVRPISLPDASHVFPAGRAIWVTGWGHTQYGGTNALILQRGEIRVINQTTCENLLPQQITPRMMCVGFLSGGVDSCQGDSGGPLSSVEADGRIFQAGVVSWGDGCAQRNRPGVYTRLPLFRDWIRENTGV
B16: MTSP-1 I41R/F99L/C122S/Q192G (enzyme)
chain: VVGGTDADEGEWPWQVSLHALGQGHRCGASLISPNWLVSAAHCYIDDRGFRYSDPTQWTAFLGLHDQSQRSAPGVQERRLKRIISHPFFNDFTLDYDIALLELEKPAEYSSMVRPISLPDASHVFPAGKAIWVTGWGHTQYGGTGALILQKGEIRVINQTTCENLLPQQITPRMMCVGFLSGGVDSCGGDSGGPLSSVEADGRIFQAGVVSWGDGCAQRNKPGVYTRLPLFRDWIKENTGV
B17: MTSP-1 H40P/I41R/F99L/C122S/Q192G (enzyme)
chain: B16 chain with H25P
B18: MTSP-1 K86R/K110R/C122S/K134R/K157R/K224R/K239R (enzyme)
chain: B15 chain with R25H, H26I, D92F, N145G
B19: MTSP-1 H40P/I41R/F99L/C122S/G151K/Q192G (enzyme)
chain: B16 chain with H25P, G145K
B20: MTSP-1 H40R/I41H/F99L/C122S/G151E/Q192G (enzyme)
chain: B16 chain with H25R, R26H, G145E
B21: MTSP-1 H40R/I41H/F97D/F99L/C122S/Q175R/Q192G/D217H/K224S (enzyme)
chain: B16 chain with H25R, R26H, F92D, Q169R, D214H, K221S
B22: MTSP-1 H40R/I41H/F97D/F99L/C122S/Q192G/D217I/K224S (enzyme)
chain: B16 chain with H25R, R26H, F92D, D214I, K221S
B23: MTSP-1 H40R/I41H/F97D/F99L/C122S/Q192G/D217K/K224A (enzyme)
chain: B16 chain with H25R, R26H, F92D, D214K, K221A
B24: MTSP-1 H40P/I41R/F99L/C122S/G151E/Q192G (enzyme)
chain: B16 chain with H25P, G145E
B25: MTSP-1 H40R/I41H/F99L/C122S/G151K/Q192G (enzyme)
chain: B16 chain with H25R, R26H, G145K
B26: MTSP-1 H40R/I41H/F97D/C122S/Q175R/Q192G/D217I/K224Q (enzyme)
chain: B16 chain with H25R, R26H, F92D, L94F, Q169R, D214I, K221Q
B27: MTSP-1 H40R/I41H/F97D/F99L/C122S/Q175R/Q192G/D217E/K224R (enzyme)
chain: B16 chain with H25R, R26H, F92D, Q169R, D214E, K221R

Chain of plasma purified human complement protein C3 (human) (P01024 23-667, chain 1 of 2): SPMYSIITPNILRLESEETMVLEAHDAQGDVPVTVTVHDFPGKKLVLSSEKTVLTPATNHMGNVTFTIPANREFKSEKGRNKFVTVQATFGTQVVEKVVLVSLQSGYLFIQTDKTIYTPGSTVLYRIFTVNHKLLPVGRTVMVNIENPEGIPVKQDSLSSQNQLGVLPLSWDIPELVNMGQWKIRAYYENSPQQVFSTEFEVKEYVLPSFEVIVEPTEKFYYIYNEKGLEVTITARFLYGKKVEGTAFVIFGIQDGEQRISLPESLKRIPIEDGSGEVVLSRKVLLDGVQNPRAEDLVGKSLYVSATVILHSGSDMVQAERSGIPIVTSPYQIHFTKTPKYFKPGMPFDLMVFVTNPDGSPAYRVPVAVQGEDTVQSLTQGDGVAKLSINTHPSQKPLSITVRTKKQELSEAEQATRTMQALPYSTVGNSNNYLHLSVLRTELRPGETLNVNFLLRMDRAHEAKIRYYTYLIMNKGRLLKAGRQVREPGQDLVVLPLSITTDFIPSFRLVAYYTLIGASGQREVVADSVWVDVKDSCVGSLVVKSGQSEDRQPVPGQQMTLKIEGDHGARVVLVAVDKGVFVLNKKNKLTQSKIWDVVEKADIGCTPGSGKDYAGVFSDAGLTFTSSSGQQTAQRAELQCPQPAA
Chain of plasma purified human complement protein C3 (human) (P01024 672-1663, chain 2 of 2): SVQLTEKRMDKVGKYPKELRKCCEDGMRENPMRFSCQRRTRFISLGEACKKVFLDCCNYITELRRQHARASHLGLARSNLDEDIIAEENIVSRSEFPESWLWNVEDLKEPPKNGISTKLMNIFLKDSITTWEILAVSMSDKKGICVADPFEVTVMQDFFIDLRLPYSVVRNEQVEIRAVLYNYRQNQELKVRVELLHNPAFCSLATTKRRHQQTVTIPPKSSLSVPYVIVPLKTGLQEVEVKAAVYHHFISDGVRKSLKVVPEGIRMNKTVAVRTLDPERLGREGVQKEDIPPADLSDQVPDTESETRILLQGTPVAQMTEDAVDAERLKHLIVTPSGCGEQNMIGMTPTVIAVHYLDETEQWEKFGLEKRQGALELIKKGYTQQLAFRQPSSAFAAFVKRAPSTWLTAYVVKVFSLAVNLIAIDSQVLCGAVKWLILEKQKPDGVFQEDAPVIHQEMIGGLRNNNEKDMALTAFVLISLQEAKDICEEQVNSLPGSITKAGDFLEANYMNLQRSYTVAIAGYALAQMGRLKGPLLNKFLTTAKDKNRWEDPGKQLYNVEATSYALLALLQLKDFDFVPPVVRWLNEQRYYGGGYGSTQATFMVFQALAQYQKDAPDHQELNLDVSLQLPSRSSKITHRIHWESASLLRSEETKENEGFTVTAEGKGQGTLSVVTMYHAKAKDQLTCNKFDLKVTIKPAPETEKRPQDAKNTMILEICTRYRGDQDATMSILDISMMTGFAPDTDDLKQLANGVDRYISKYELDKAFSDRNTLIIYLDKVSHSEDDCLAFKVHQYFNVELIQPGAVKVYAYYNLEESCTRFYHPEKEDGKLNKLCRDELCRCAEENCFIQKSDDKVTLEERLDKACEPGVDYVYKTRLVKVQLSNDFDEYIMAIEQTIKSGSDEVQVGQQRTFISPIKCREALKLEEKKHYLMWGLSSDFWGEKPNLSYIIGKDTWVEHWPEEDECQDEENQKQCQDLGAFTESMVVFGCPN

This experiment has as its target plasma purified human complement protein C3 (human) (UniProt P01024). Kind of experiment: cell-based or functional assay.
With B1, the EC50 of hC3 cleavage was 0.126 µM. Next, B2: 1.41 µM; B3: 1.62 µM. Next, B4: 0.743 µM. In the case of B5 it was 0.622 µM; in that of B6, 0.442 µM; in that of B7, 0.311 µM. Molecule B8 gave an EC50 of hC3 cleavage of 0.523 µM. Next, B9: 1.77 µM; B10: 0.212 µM; B11: 0.363 µM. In the case of B12 it was 0.163 µM. Next, B13: 0.253 µM; B14: 9.99 µM; B15: 0.304 µM. B16 displayed an EC50 of hC3 cleavage of 0.0538 µM.

In turn, B17 registered an EC50 of hC3 cleavage of 0.0624 µM. In turn, B18 came in with an EC50 of hC3 cleavage of 0.0173 µM. The molecule B19 came in with an EC50 of hC3 cleavage of 0.0961 µM. B20: the EC50 of hC3 cleavage is 0.829 µM. Next, B21: 0.0452 µM; B22: 0.0193 µM. Next, B23: 0.0234 µM; B24: 0.153 µM.

B25: the EC50 of hC3 cleavage stood at 1.52 µM. In turn, B26 displayed an EC50 of hC3 cleavage of 0.0931 µM.

B27: the EC50 of hC3 cleavage is 0.0312 µM.
